According to patent US20260116987A1 (Gilead, published 2026):

Legend:
[1] = molecular target: T1, Human CCR8 on human CCR8-overexpression lipoparticles (human, UniProt P51685 1-355); experiment: sequential format ELISA on human CCR8-overexpression lipoparticles; competitor 1-K16
[2] = molecular target: T1, Human CCR8 on human CCR8-overexpression …; experiment: sequential format ELISA on human CCR8-overexpression lipoparticles; competitor 19-O07
[3] = molecular target: T1, Human CCR8 on human CCR8-overexpression …; experiment: sequential format ELISA on human CCR8-overexpression lipoparticles; competitor 7-B16
[4] = molecular target: T1, Human CCR8 on human CCR8-overexpression …; experiment: sequential format ELISA on human CCR8-overexpression lipoparticles; competitor 1-K17
[5] = molecular target: T2, Human CCR8 (C-C chemokine receptor type 8) expressed on CHO-S cells (human, UniProt P51685 1-355); experiment: flow cytometry epitope binning, tandem format, human CCR8-overexpressing cells; competitor 19-O07
T2 construct: also called huCCR8; human CCR8-expressing CHO-S cells
T2 sequence (P51685 whole entry): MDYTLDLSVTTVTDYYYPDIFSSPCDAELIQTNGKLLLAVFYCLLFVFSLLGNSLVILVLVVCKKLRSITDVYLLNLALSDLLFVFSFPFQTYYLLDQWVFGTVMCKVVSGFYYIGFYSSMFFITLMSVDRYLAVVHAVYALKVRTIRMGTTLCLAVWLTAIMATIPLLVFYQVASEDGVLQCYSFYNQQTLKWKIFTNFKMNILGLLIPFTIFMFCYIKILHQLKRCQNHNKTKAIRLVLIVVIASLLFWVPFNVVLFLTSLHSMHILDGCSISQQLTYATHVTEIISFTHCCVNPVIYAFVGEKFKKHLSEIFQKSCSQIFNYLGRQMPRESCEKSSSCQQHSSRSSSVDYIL
Description: (§1) A subset of antibodies against human CCR8 were epitope binned using flow cytometry method in tandem format. Briefly, one set of antibodies was biotinylated. Human CCR8-overexpressing cells were incubated at 4° C., with the non-biotinylated antibodies at 10 μg/mL for 1 hour, then without washing the biotinylated antibodies were added at 10 μg/mL. After a further 1-hour incubation, cells were washed three times and then stained with streptavidin-phycoerythrin (PE-strep) secondary antibody for 30 minutes. Binding competition was determined by detecting PE by flow cytometry. The response values were normalized as the % of the maximum binding of the individual antibody.

[6] = molecular target: T3, Human CCR4 expressed on CHO-S cells (human, UniProt P51679 1-360); experiment: flow cytometry
T3 construct: whole, on cells; also called CCR4-expressing CHO-S cells
T3 sequence (looked up): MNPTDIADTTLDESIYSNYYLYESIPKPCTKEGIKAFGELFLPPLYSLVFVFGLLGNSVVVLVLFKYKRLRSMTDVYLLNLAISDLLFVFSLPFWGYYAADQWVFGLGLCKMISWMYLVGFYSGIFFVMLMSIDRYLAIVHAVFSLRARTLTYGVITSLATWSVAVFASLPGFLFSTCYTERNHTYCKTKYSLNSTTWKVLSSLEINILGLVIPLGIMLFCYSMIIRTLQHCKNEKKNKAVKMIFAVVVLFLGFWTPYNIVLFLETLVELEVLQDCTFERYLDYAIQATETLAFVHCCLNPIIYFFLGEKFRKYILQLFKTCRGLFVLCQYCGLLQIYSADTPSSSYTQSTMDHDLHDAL

[7] = molecular target: T2, Human CCR8 (C-C chemokine receptor type …); experiment: KinExA, on-cell, human CCR8-expressing CHO-S cells; calculated from Kd and kon
Description: (§2) Samples were gently rocked for 2.5 hours at 37° C. to achieve equilibrium.
(§3) To determine the rate of association (kₒₙ), the same immobilized biotinylated goat anti-human IgG-PMMA column was used as the capture reagent for kinetic experiments.
(§4) Data analysis was performed using KinExA Pro software at Sapidyne Instruments Inc to generate Kd and kₒₙ, The rate of dissociation (koff) was calculated based on the equation below.

[8] = molecular target: T2, Human CCR8 (C-C chemokine receptor type …); experiment: flow cytometry epitope binning, tandem format, human CCR8-overexpressing cells; competitor 7-B16
Description: as §1

[9] = molecular target: T2, Human CCR8 (C-C chemokine receptor type …); experiment: flow cytometry epitope binning, tandem format, human CCR8-overexpressing cells; competitor 1-K16
Description: as §1

[10] = molecular target: T2, Human CCR8 (C-C chemokine receptor type …); experiment: flow cytometry epitope binning, tandem format, human CCR8-overexpressing cells; competitor 6-B09
Description: as §1

[11] = molecular target: T2, Human CCR8 (C-C chemokine receptor type …); experiment: flow cytometry epitope binning, tandem format, human CCR8-overexpressing cells; competitor 1-K17
Description: as §1

[12] = molecular target: T2, Human CCR8 (C-C chemokine receptor type …); experiment: KinExA, on-cell, human CCR8-expressing CHO-S cells
Description: as §2, §3, §4

[13] = molecular target: T1, Human CCR8 on human CCR8-overexpression …; experiment: sequential format ELISA on human CCR8-overexpression lipoparticles; competitor 6-B09
[14] = molecular target: T2, Human CCR8 (C-C chemokine receptor type …); experiment: cell-based or functional assay
[15] = molecular target: T2, Human CCR8 (C-C chemokine receptor type …); experiment: cell-based or functional assay; remark: listed apart in the source
[16] = molecular target: T2, Human CCR8 (C-C chemokine receptor type …); experiment: cell-based or functional assay; remark: listed apart in the source
[17] = molecular target: T2, Human CCR8 (C-C chemokine receptor type …); experiment: flow cytometry, human CCR8-overexpressing against parental CHO-S cells
Description: The first category of variant (single substitution mutation in the CDR H3) included variants in which each amino acid residue of the heavy chain CDR 3 (i.e., , CDR H3) was iteratively substituted with an alanine residue.
(§5) CCR8 binding was determined using flow cytometry according to the same methods used in Example 4, Briefly, antibodies were screened for specific binding to human CCR8 by flow cytometry using human CCR8-overexpressing and parental CHO—S cell line. Antibodies specifically binding to human CCR8 were also tested for binding to CCR4 by flow cytometry.

[18] = molecular target: T2, Human CCR8 (C-C chemokine receptor type …); experiment: flow cytometry on CHO cells expressing CCR8, EC50 column
Description: as §5

[19] = molecular target: T4, CCR8-NT.MBP (CCR8 N-terminus peptide aa 1-35 fused with maltose binding protein); experiment: ForteBio Octet, antibody captured on AHC biosensors, CCR8-NT.MBP as analyte
[20] = molecular target: T4, CCR8-NT.MBP (CCR8 N-terminus peptide aa …); experiment: ForteBio Octet, antibody captured on AHC biosensors

T1 sequence (P51685 whole entry): as the sequence (P51685 whole entry) above

B1: 1-K17 chimera (human IgG1) (antibody)
heavy: not shown
light: DVVMTQTPLSLPVSLGDQASISCRSSQSLVHSNGNTYLYWYLQKPGQSPKLLIYKVSNRFSGVPDRFSGSGSGTDFTLKISRVEAEDLGVYFCSQSTHVPYTFGGGTKLEIKRTVAAPSVFIFPPSDEQLKSGTASVVCLLNNFYPREAKVQWKVDNALQSGNSQESVTEQDSKDSTYSLSSTLTLSKADYEKHKVYACEVTHQGLSSPVTKSFNRGEC
notes: also called 1-K17.hG1 Chimera
- ELISA epitope binning signal [1]: 0.036
- ELISA epitope binning signal [2]: 0.268
- ELISA epitope binning signal [3]: 0.047
- ELISA epitope binning signal [4]: 0.124
- % of the maximum binding [5]: 28%
- binding result [6]: no binding
- koff [7]: 0.000144 s⁻¹
- % of the maximum binding [8]: 14%
- % of the maximum binding [9]: 12%
- % of the maximum binding [10]: 102%
- % of the maximum binding [11]: 11%
- Kd [12]: 0.018 nM
- kon [12]: 7.81e+06 M⁻¹ s⁻¹
- ELISA epitope binning signal [13]: 0.651
- EC50 of ADCC function (Promega ADCC reporter bioassay) [14]: 0.00618 µg/mL
- IC50, antagonist activity in DiscoverX PathHunter beta-arrestin assay with 13.7 nM human CCL1 [15]: 0.071 µg/mL

B2: 19-O07 chimera (human IgG1) (antibody)
heavy: not shown
light: DVVMTQTPLTLSVTIGQPASISCKSSQSLLYSNGKTYLNWLLQRPGQSPKRLIYLVSKLDSGVPDRFTGSGSGTDFTLKISRVEAEDLGVYYCVQGTRFPWTFGGGTNLEIKRTVAAPSVFIFPPSDEQLKSGTASVVCLLNNFYPREAKVQWKVDNALQSGNSQESVTEQDSKDSTYSLSSTLTLSKADYEKHKVYACEVTHQGLSSPVTKSFNRGEC
notes: also called 19-007; 19-O07 chimeric antibody
- ELISA epitope binning signal [1]: 0.882
- ELISA epitope binning signal [2]: 0.817
- ELISA epitope binning signal [3]: 1.02
- ELISA epitope binning signal [4]: 0.784
- % of the maximum binding [5]: 54%
- binding result [6]: no binding
- % of the maximum binding [8]: 108%
- % of the maximum binding [9]: 109%
- % of the maximum binding [10]: 39%
- % of the maximum binding [11]: 91%
- ELISA epitope binning signal [13]: 0.679
- IC50, antagonist activity in DiscoverX PathHunter beta-arrestin assay with 13.7 nM human CCL1 [15]: 995 µg/mL

B3: 13-E16 chimera (human IgG1) (antibody)
heavy: not shown
light: QIVLTQSPAIMSASPGEKVTITCSASSSVSYMHWFQQKPGTSPKLWIYSTSNLASGVPARFSGSGSGTSYFLTISRMEAEDAATYYCQQRSSYPYTFGGGTKLERKRTVAAPSVFIFPPSDEQLKSGTASVVCLLNNFYPREAKVQWKVDNALQSGNSQESVTEQDSKDSTYSLSSTLTLSKADYEKHKVYACEVTHQGLSSPVTKSFNRGEC
notes: also called 13-E16 chimeric antibody
- binding result [6]: no binding
- EC50 of ADCC function (Promega ADCC reporter bioassay) [14]: 0.0549 µg/mL
- IC50, antagonist activity in DiscoverX PathHunter beta-arrestin assay with 13.7 nM human CCL1 [15]: 12.6 µg/mL

B4: 7-B16 chimera (human IgG1) (antibody)
heavy: not shown
light: DIVMTQAEPSVPVTPGESISISCRSSKSLLHSNGNTYLYWFLQRPGQSPQLLIYRMSNLASGVPDRFSGSGSGTAFTLRISRVEAEDVGVYYCMQHLEYPFTFGGGTKLEIKRTVAAPSVFIFPPSDEQLKSGTASVVCLLNNFYPREAKVQWKVDNALQSGNSQESVTEQDSKDSTYSLSSTLTLSKADYEKHKVYACEVTHQGLSSPVTKSFNRGEC
notes: also called 7-B16.hG1 Chimera; Wild type 7-B16
- ELISA epitope binning signal [1]: 0.101
- ELISA epitope binning signal [2]: 0.437
- ELISA epitope binning signal [3]: 0.655
- ELISA epitope binning signal [4]: 0.771
- % of the maximum binding [5]: 148%
- binding result [6]: no binding
- koff [7]: 0.00134 s⁻¹
- ADCC (Fold Induction) [16]: 23.3 fold
- Flow (fold over parent) [17]: 10 fold
- % of the maximum binding [8]: 41%
- % of the maximum binding [9]: 14%
- % of the maximum binding [10]: 175%
- % of the maximum binding [11]: 18%
- Kd [12]: 0.22 nM
- kon [12]: 6.08e+06 M⁻¹ s⁻¹
- ELISA epitope binning signal [13]: 1.04
- EC50 of ADCC function (Promega ADCC reporter bioassay) [14]: 0.00691 µg/mL
- IC50, antagonist activity in DiscoverX PathHunter beta-arrestin assay with 13.7 nM human CCL1 [15]: 0.09 µg/mL

B5: 1-K16 chimera (human IgG1) (antibody)
heavy: not shown
light: DIVMTQAAPSVPVTPGESVSISCRSSKSLLHSNGNTYLYWFLQRPGQSPQLLIYRMSNLASGVPDRFSGSGSGTAFTLRISRVEAEDVGVYYCMQHLEYPFTFGAGTKLELKRTVAAPSVFIFPPSDEQLKSGTASVVCLLNNFYPREAKVQWKVDNALQSGNSQESVTEQDSKDSTYSLSSTLTLSKADYEKHKVYACEVTHQGLSSPVTKSFNRGEC
notes: also called 1-K16 chimeric antibody
- ELISA epitope binning signal [1]: 0.264
- ELISA epitope binning signal [2]: 1.49
- ELISA epitope binning signal [3]: 0.758
- ELISA epitope binning signal [4]: 0.794
- % of the maximum binding [5]: 149%
- binding result [6]: no binding
- % of the maximum binding [8]: 88%
- % of the maximum binding [9]: 31%
- % of the maximum binding [10]: 167%
- % of the maximum binding [11]: 32%
- ELISA epitope binning signal [13]: 0.964
- IC50, antagonist activity in DiscoverX PathHunter beta-arrestin assay with 13.7 nM human CCL1 [15]: 4.55 µg/mL

B6: 7B16-H1.001 (CDR H1 swapped mutant of 7-B16) (antibody, V domains shown)
VH: EVQLVESGGGLVQPKGSLKLSCAASGFTFSGSAMHWVRQAPGKGLEWVARIRSKSNNYATYYADSVKDRFTISRDDSQSMLYLQMNNLKTEDTAMYYCVRGLLRYRFFDVWGAGTTVTVSS
VL: DIVMTQAEPSVPVTPGESISISCRSSKSLLHSNGNTYLYWFLQRPGQSPQLLIYRMSNLASGVPDRFSGSGSGTAFTLRISRVEAEDVGVYYCMQHLEYPFTFGGGTKLEIKR
notes: also called CDR swapped variant H1
- binding result [18]: no binding

B7: 7B16-L1.001 (CDR L1 swapped mutant of 7-B16) (antibody, V domains shown)
VH: EVQLVESGGGLVQPKGSLKLSCAASGFTFNTYAMNWVRQAPGKGLEWVARIRSKSNNYATYYADSVKDRFTISRDDSQSMLYLQMNNLKTEDTAMYYCVRGLLRYRFFDVWGAGTTVTVSS
VL: DIVMTQAEPSVPVTPGESISISCRSSQSLLHSNGYNYLDWFLQRPGQSPQLLIYRMSNLASGVPDRFSGSGSGTAFTLRISRVEAEDVGVYYCMQHLEYPFTFGGGTKLEIKR
notes: also called CDR swapped variant L1
- Octet Response (nm) [19]: 0.0039 nm
- binding result [18]: no binding
- binding result [20]: no binding (tested: 300 nM CCR8-NT.MBP)
